Test results as given in paper PMC9636267 (2022).
Where two headings read alike, the source gives them in different places.

Columns and labels:
Assay in all cases: SPR
[1] = target: R14
[2] = target: R17
[3] = target: S10
[4] = target: R10
[5] = target: S02
[6] = target: S15
[7] = target: S08
[8] = target: R07
[9] = target: R14; remark: listed apart in the source
[10] = target: R17; remark: listed apart in the source
[11] = target: S10; remark: listed apart in the source
[12] = target: R10; remark: listed apart in the source
[13] = target: S02; remark: listed apart in the source
[14] = target: S15; remark: listed apart in the source
[15] = target: S08; remark: listed apart in the source
[16] = target: R07; remark: listed apart in the source
[17] = target: T1, HCoV-229E S ectodomain (17–1115 aa), 229E S trimer (human coronavirus 229E, UniProt P15423 17-1115)
T1 chain: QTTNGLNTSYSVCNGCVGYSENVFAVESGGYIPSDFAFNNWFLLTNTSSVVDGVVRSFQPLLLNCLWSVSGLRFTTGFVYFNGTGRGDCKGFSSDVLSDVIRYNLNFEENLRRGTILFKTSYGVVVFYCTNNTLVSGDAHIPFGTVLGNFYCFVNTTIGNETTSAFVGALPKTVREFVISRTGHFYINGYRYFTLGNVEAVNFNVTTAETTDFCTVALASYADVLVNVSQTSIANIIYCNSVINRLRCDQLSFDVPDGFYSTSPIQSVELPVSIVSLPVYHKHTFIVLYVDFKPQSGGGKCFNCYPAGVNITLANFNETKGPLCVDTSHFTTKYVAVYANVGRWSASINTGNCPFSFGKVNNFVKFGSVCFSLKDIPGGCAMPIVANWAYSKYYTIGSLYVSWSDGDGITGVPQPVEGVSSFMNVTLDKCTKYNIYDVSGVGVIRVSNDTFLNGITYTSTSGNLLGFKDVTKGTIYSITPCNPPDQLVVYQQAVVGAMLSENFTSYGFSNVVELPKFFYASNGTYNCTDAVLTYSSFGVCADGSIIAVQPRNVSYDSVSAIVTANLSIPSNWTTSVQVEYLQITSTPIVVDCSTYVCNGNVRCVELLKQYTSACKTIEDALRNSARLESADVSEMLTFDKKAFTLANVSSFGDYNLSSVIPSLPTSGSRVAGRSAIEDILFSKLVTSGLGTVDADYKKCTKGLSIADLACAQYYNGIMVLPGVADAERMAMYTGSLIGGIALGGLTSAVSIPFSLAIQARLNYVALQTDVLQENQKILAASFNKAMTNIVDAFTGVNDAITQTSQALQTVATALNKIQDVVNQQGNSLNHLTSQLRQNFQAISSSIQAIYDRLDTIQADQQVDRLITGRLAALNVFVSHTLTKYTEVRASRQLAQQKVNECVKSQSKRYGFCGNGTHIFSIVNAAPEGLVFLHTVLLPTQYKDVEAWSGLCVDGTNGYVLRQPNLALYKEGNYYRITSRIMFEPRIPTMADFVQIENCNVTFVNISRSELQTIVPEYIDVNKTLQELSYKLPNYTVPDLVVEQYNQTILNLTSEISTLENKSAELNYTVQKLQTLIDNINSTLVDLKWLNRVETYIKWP

[18] = target: T1, HCoV-229E S ectodomain (17–1115 aa), …
[19] = target: T2, HCoV-229E S1 subunit (17–560 aa) (human coronavirus 229E, UniProt P15423 17-560)
T2 chain: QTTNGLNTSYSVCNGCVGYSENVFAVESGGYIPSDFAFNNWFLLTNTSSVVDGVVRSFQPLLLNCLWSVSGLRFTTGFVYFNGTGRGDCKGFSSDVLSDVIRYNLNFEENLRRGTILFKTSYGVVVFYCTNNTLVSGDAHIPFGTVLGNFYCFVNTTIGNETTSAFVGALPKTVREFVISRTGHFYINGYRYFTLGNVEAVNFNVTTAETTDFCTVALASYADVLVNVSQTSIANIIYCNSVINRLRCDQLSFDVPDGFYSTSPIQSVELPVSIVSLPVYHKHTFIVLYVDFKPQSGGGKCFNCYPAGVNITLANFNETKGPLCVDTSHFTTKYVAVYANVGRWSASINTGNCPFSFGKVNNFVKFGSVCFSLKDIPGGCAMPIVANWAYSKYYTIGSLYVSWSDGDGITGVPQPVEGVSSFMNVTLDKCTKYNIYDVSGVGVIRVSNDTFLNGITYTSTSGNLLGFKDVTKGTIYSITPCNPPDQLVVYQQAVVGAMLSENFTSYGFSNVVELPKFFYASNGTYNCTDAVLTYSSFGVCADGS

[20] = target: T3, HCoV-229E NTD (17–265 aa) (human coronavirus 229E, UniProt P15423 17-265)
T3 chain: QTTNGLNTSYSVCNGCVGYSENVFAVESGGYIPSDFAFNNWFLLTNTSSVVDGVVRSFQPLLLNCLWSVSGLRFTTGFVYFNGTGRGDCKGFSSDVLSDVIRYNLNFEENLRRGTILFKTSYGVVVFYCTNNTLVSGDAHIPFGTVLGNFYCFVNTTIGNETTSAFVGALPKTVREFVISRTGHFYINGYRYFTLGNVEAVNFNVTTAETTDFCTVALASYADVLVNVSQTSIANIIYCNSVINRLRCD

[21] = target: T4, HCoV-NL63 S ectodomain (16–1291 aa) (human coronavirus NL63, UniProt Q6Q1S2 16-1291)
T4 chain: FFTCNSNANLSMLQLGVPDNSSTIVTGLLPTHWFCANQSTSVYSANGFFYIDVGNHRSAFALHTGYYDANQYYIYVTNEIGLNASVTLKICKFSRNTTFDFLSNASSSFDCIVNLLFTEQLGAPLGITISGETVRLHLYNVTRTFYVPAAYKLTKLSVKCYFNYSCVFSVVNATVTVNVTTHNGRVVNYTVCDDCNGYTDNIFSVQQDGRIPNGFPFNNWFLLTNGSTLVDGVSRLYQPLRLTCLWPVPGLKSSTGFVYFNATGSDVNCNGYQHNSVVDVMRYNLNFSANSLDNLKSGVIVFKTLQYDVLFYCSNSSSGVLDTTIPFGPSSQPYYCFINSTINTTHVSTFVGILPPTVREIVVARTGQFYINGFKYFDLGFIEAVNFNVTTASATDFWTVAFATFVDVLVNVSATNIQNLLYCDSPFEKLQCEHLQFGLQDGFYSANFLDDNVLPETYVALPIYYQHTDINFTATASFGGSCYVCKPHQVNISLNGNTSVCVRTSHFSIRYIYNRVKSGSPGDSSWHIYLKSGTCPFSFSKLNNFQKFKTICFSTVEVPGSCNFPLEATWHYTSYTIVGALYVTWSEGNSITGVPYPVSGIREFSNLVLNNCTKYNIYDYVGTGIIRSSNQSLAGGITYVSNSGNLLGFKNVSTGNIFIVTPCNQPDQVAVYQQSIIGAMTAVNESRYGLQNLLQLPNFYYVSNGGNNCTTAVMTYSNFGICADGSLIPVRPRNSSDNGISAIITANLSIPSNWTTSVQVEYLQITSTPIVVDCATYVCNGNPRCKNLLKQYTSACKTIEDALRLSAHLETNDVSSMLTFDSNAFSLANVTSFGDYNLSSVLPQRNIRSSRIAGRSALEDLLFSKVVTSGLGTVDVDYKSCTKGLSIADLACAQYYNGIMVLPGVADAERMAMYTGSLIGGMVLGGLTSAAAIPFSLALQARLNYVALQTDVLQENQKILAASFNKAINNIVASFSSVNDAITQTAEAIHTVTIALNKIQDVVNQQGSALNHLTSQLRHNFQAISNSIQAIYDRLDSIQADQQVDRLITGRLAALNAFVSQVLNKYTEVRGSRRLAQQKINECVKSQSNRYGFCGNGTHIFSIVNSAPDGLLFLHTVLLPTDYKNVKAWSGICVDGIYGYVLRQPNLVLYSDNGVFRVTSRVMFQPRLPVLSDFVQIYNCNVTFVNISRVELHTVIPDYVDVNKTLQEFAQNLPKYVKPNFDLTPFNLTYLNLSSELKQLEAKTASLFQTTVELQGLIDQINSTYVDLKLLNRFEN

[22] = target: T4, HCoV-NL63 S ectodomain (16–1291 aa)
[23] = target: T2, HCoV-229E S1 subunit (17–560 aa)
[24] = target: T3, HCoV-229E NTD (17–265 aa)
[25] = target: T5, HCoV-229E S2 subunit (575–1115 aa) (human coronavirus 229E, UniProt P15423 575-1115)
T5 chain: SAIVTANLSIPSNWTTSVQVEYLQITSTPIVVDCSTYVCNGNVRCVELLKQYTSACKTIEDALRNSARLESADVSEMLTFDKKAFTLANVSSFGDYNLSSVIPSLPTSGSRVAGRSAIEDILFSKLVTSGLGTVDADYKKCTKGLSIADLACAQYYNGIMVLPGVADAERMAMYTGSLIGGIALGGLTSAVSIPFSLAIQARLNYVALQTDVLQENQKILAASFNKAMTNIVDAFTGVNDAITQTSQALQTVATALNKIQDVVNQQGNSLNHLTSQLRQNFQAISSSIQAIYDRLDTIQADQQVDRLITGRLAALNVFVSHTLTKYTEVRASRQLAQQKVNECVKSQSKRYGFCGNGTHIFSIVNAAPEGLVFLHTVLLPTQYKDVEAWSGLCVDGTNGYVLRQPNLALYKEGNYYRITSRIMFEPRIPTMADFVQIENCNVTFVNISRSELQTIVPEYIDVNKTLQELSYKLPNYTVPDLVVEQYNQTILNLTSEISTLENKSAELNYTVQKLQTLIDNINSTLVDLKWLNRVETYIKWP

B1: HCoV-229E RBD (294–435 aa) (domain or fragment)
chain: PVYHKHTFIVLYVDFKPQSGGGKCFNCYPAGVNITLANFNETKGPLCVDTSHFTTKYVAVYANVGRWSASINTGNCPFSFGKVNNFVKFGSVCFSLKDIPGGCAMPIVANWAYSKYYTIGSLYVSWSDGDGITGVPQPVEGV
With B1 the Kd [1] was 0.81 nM, the koff [1] was 0.003 s⁻¹ and the Kd [2] was 0.92 nM. The koff [2] was 0.0025 s⁻¹, the Kd [3] was 0.51 nM and the koff [3] was 0.0031 s⁻¹. For the same binder, the Kd [4] was 0.32 nM, the koff [4] was 0.0019 s⁻¹ and the Kd [5] was 0.49 nM. The koff [5] was 0.0018 s⁻¹, the Kd [6] was 0.26 nM and the koff [6] was 0.00097 s⁻¹. For the same binder, the Kd [7] was 2.9 nM, the koff [7] was 0.0053 s⁻¹ and the koff [8] was 0.0016 s⁻¹. For the same binder, the Kd [9] was 0.8 nM, the Kd [10] was 0.9 nM and the Kd [11] was 0.5 nM. It also gave a Kd [12] of 0.3 nM, a Kd [13] of 0.5 nM and a Kd [14] of 0.3 nM. It also gave a Kd [15] of 3 nM and a Kd [16] of 2 nM.

B2: Fab F07 (Fab, V domains shown)
VH: EVQLVESGGGLVQPGGSLRLSCAASGFNISYYSIHWVRQAPGKGLEWVASIYPYYGYTSYADSVKGRFTISADTSKNTAYLQMNSLRAEDTAVYYCARSSGYYHYPYSHSGLDYWGQGTLVTVSS
VL: DIQMTQSPSSLSASVGDRVTITCRASQSVSSAVAWYQQKPGKAPKLLIYSASSLYSGVPSRFSGSRSGTDFTLTISSLQPEDFATYYCQQSYYWGGPITFGQGTKVEIK
B2 showed a koff [17] of 0.00035 s⁻¹, a Kd [18] of 1.4 nM and a Kd [19] of 0.7 nM. For the same binder, the Kd [20] was 3.1 nM, the Kd [21] was 6400 nM and the Kd [22] was 3900 nM. The koff [23] was 0.00036 s⁻¹ and the koff [24] was 0.00053 s⁻¹.

B3: Fab F12 (Fab, V domains shown)
VH: EVQLVESGGGLVQPGGSLRLSCAASGFNLYYYYIHWVRQAPGKGLEWVASISPYSGYTSYADSVKGRFTISADTSKNTAYLQMNSLRAEDTAVYYCARAFSSYYSHSVGLDYWGQGTLVTVSS
VL: DIQMTQSPSSLSASVGDRVTITCRASQSVSSAVAWYQQKPGKAPKLLIYSASSLYSGVPSRFSGSRSGTDFTLTISSLQPEDFATYYCQQHSWGGLITFGQGTKVEIK
Binder B3 has a koff [17] of 0.00091 s⁻¹ and a koff [25] of 2.7e-05 s⁻¹.
